Here are results for one molecule from patent US20240417457A1.

This test deals with FRα covalently bound to a CM5 sensor chip (UniProt P15328). Kind of test: SPR (Biacore T200), FRα amine-coupled to a CM5 chip, 180 sec association then dissociation.
Sequence of UniProt P15328 (P15328 25-234 limits assumed): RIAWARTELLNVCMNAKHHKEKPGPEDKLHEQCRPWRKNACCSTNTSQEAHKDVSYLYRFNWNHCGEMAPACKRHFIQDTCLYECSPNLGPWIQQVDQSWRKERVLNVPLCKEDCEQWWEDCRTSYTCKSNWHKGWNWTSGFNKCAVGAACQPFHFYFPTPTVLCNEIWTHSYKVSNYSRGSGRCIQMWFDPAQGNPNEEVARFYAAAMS

B1: Antibody I (ScFv, SEQ. ID. NOs: 9-10) (scFv, part only; not given: linker, domain order, His tag, V domains shown, not shown: another chain or arm of the molecule; small tags and cut ends)
VH: QVQLVQSGSELKKPGASVKVSCKASDYIFTNYDITWVRQAPGQGLEWMGEIDPRSGKSYYNEKFKGKSTLTADKSVSTAYLQISSLKAEDTAVYFCATMYYYGSSPPMDYWGQGTTVTVS
VL: DIQMTQSPSSLSASVGDRVTITCRASQDINNFLNWYQQKPGKAPKLLIYYTSRLHSGVPSRFSGSGSGTDYTFTISSLQPEDIATYFCQQSSTIPRTFGQGTKLEIK
For B1, the binding at time 300 sec as percent of the plateau stood at 75%.
